Key:
[1] = molecular target: human KATPem (human SUR1-human Kir6.2 fusion construct) (human); test: cryo-EM structure
[2] = molecular target: the molecule itself; test: cryo-EM structure

stoichiometry N [1]	Molecule	stoichiometry N [2]
4	human KATPem (human SUR1-human Kir6.2 fusion construct) (complex)	–
–	human Kir6.2 (natural protein, UniProt Q14654 1-390, looked up) MLSRKGIIPEEYVLTRLAEDPAKPRYRARQRRARFVSKKGNCNVAHKNIREQGRFLQDVFTTLVDLKWPHTLLIFTMSFLCSWLLFAMAWWLIAFAHGDLAPSEGTAEPCVTSIHSFSSAFLFSIEVQVTIGFGGRMVTEECPLAILILIVQNIVGLMINAIMLGCIFMKTAQAHRRAETLIFSKHAVIALRHGRLCFMLRVGDLRKSMIISATIHMQVVRKTTSPEGEVVPLHQVDIPMENGVGGNSIFLVAPLIIYHVIDANSPLYDLAPSDLHHHQDLEIIVILEGVVETTGITTQARTSYLADEILWGQRFVPIVAEEDGRYSVDYSKFGNTVKVPTPLCTARQLDEDHSLLEALTLASARGPLRKRSVPMAKAKPKFSISPDSLS	4

— article doi:10.1101/199034 (bioRxiv, 2017)
